From the supplement of paper PMC9170038

What was measured:
[1] = system: MS2 coat protein; experiment: apparent KD of MS2 coat protein; designed switch direction (-1 OFF switch, 1 ON switch): 1; higher = weaker reporter binding
In short: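 Stalled E. coli RNA polymerase transcribed designed RNA switches on Illumina chips, which were then titrated with SNAP-549-labelled MS2 coat protein, doubling from 0.7 or 1.5 nM to 3 µM. Steps lasted from 0.8–1.5 h at the lowest concentration to 10–20 min at the highest. The apparent KD is each design's median over clusters of curve-fitted normalised fluorescence.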

[2] = system: MS2 coat protein; experiment: apparent KD of MS2 coat protein; higher = weaker reporter binding; conditions: Eterna round: R107
In short: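 Apparent KD is reported per design as the median of normalised binding-curve fits across its clusters. The RNA switches were made by on-chip transcription from Illumina sequencing clusters. SNAP-549-labelled MS2 coat protein was then added in twofold steps (0.7 or 1.5 nM to 3 µM; 0.8–1.5 h to 10–20 min per step) in 100 mM Tris-HCl pH 7.5, 80 mM KCl, 4 mM MgCl2, without or with constant ligand.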

[3] = input ligand: microRNA oligo, concentration not stated
[4] = Eterna round: R95, input ligand: FMN 200 uM
[5] = Eterna round: R95, input ligand: microRNA oligo, concentration not stated
[6] = Eterna round: R95, input ligand: none
[7] = input ligand: theophylline 20 uM
[8] = input ligand: theophylline 2 mM
[9] = input ligand: tryptophan 2.4 mM

| Sequence | apparent KD of MS2 coat protein ([1]; input ligand: FMN 200 uM) [nM] | apparent KD of MS2 coat protein [1, 3] [nM] | apparent KD of MS2 coat protein ([1]; input ligand: none) [nM] | further results |
| --- | --- | --- | --- | --- |
| CCGUAAUAUGGAGGAUAUGGAGCCUUAUUGGCUCCAGAAGGUCAAAACAUGAGGAUCACCCAUGUAUCGGCGGUCAAUAGACCG [Eli NG1ss - 74] (Eterna round: R96, puzzle: Same State NG 1) | 42.1 | 53.3 | 91.2 | – |
| AGGGAGGAAGCUGAGGAUAUCGUAAGGAGGACAUGAGGAUCACCCAUGUGUGUGGAAUUGGAGGACGAGAAGGCAGAGGAGUGGG [JR_SS2_Sub054] (Eterna round: R96, puzzle: Same State 2) | 40.5 | 35 | 38.4 | – |
| UUUAGAUUCAGAGGAUAUUGAUGUUGUAAGUAACAAGAAGGCUGAUUGGUUAGAAUUGUUUAUUAACAUGAGGAUCACCCAUGU [JR_SSNG1_Sub010] (Eterna round: R96, puzzle: Same State NG 1) | 18.1 | 28.2 | 30.6 | – |
| UUGAAGAAUUAAGGAUAUUGAUUACAUAUGUUAAACAUGAGGAUCACCCAUGUGGGUUGCGGUAUCGAGAAGGUAAAUUAAAAG [Mat - same State NG 2 - JL mod - D78] (Eterna round: R96, puzzle: Same State NG 2) | 171 | 123 | 146 | – |
| GGAGCCAAGGCAGGAUAUUCAUAUUAAUUACAUGAGGAUCACCCAUGUUGGGCCAGAAGGCCUUGGGAGAAGGGCCAUGGCUCG [Xeonanis - 13 mod18] (Eterna round: R96, puzzle: Same State NG 2) | 27.1 | 56.5 | 84 | – |
| AAGUAGUGGUCAGGAUAUCAAAUCAUUGCAUCACGAUACAUGAGGAUCACCCAUGUCCCAAAAUAUGAGAAGGGACUCACACGG [Eternabot solution 45] (Eterna round: R96, puzzle: Same State NG 2) | 279 | 90.1 | 186 | – |
| CCAAAGUACAAUUUAGAUCUACAUGAGGAUCACCCAUGUACUGAGGAUAUCAGCUCGAUUAGAGCUGAGAAGGCAGAAUUAAUU [SSNG3/4-A2] (Eterna round: R96, puzzle: Same State NG 3) | 101 | 90 | 148 | – |
| ACAAGCUUUUCUGUAUUGAAAGGUGGGAUACAUGAGGAUCACCCAUGUUUUUUCGUUUGUUUUGUUCCUCGUCUUAU [JR_SHM208A_Sub090] (puzzle: Sensor for hsa-mir-208a) | – | – | – | apparent KD of MS2 coat protein [1, 4]: 87.7 nM; apparent KD of MS2 coat protein [1, 5]: 23.9 nM; apparent KD of MS2 coat protein [1, 6]: 116 nM |
| UUACUCAUGUAAGGAUAUGCAGCCGUUUCGGCUGCAGAAGGUACUAUAAUACAUGAGGAUCACCCAUGUCUCUAUAAUUUAGUG [JL SSNG1 1.30] (Eterna round: R96, puzzle: Same State NG 1) | 102 | 38.6 | 49.7 | – |
| CCGCUAAAUGGAGGAUAUGGAGCCUUAUUGGCUCCAGAAGGCUAAAACAUGAGGAUCACCCAUGUGCGGCGGUCUAAUGACCGA [Eli NG1ss - 49] (Eterna round: R96, puzzle: Same State NG 1) | 14.7 | 34.6 | 49.3 | – |
| GUAAAACAUGAGGAUCACCCAUGUAAUAUAAUGGGAGGAUAUCUGAUUUAAUUAAAUUUAAGAGAAGGCCUAAAUG [Mat - Same State 1 - Mod of Eli - D56] (puzzle: Same State 1) | – | – | – | apparent KD of MS2 coat protein [1, 4]: 32.1 nM; apparent KD of MS2 coat protein [1, 5]: 107 nM; apparent KD of MS2 coat protein [1, 6]: 123 nM |
| ACAUGAAAGUUAGGAUAUUUUGUACCUACAUGUGACAUGAGGAUCACCCAUGUGGUAAGUAUAAGAGAGAAGGAGCAGAUAUGU [Equivalence 1 - Jieux - Same State NG 2] (Eterna round: R96, puzzle: Same State NG 2) | 45.1 | 48.1 | 52.8 | – |
| GGCCUCUGUCAAGGAUAUGCUACCGUUUCGGUAGCAGAAGGUGAUCACAUGCGGGUCACCCAUGUUUAGGCCAACAGGCCCGCC (Eterna round: R96, puzzle: Same State NG 1) | 63 | 1.08 | 3.57 | – |
| AUGAUCUACCGAAAGGUAGAUCGGCUUGUACAUGAGGAUCACCCAUGUAUGUACAAGCUUUUUGCUCGUCUUAUAAA [Modxample - Jieux - Sensor for bsa-mir-208a] (Eterna round: R96, puzzle: Sensor for hsa-mir-208a) | 279 | 16.6 | 282 | – |
| GUGGAGGGUUGAGGAUAUUGAAUACAUAUGUUUAACAUGAGGAUCACCCAUGUGGGUUGCGGUAUCGAGAAGGUAGGUUGCUGG [salish99_SSNG2_r04_039] (Eterna round: R96, puzzle: Same State NG 2) | 96.7 | 45.2 | 84.9 | – |
| GCUAGAAUAAAUGCCUACAUGAGGAUCACCCAUGUAUGUAGGCAGGAUAUCGUAUGCAAAGCAUACGAGAAGGGCCUUACUAGC [Mat - Same State NG 3 - JL Mod - D30] (Eterna round: R96, puzzle: Same State NG 3) | 22.7 | 55.4 | 85.2 | – |
| GGCCUGCCGCAAGGAUAUGAAGCUUUCGCUCCGUCAGAAGGUGCACAUGAGGAUCACCCAUGUAGGCAGGCCAAGAACUAAAAC [Veveanus] (Eterna round: R96, puzzle: Same State NG 1) | 213 | 42 | 123 | – |
| GCACAAGAUGGAAGGAGCGCUGGUAACGGUCACAUGAGGAUCACCCAUGUGCUCCUUGCCGAGCAGGUAGGUCGCCAUCUUGUGC [SSAB NP+V+V2 #6 +-Same Structure] | – | – | – | apparent KD of MS2 coat protein ([2]; input ligand: arginine 13.2 mM): 34.1 nM; apparent KD of MS2 coat protein ([2]; input ligand: none): 44.4 nM; apparent KD of MS2 coat protein [2, 7]: 46.1 nM; apparent KD of MS2 coat protein [2, 8]: 45.3 nM; apparent KD of MS2 coat protein [2, 9]: 35.3 nM |
| UUCAGCUAGUCGGCCGCCACUACUUGAGGAUCACCCAAGUAGGUCCACACUGCUUCGGCAGUGAGUAGGACCGGGACUAGCUGAG | – | – | – | apparent KD of MS2 coat protein ([2]; input ligand: arginine 13.2 mM): 13.7 nM; apparent KD of MS2 coat protein ([2]; input ligand: none): 14.7 nM; apparent KD of MS2 coat protein [2, 7]: 13.5 nM; apparent KD of MS2 coat protein [2, 8]: 11.5 nM; apparent KD of MS2 coat protein [2, 9]: 35.3 nM |
| AAUUAGAUGUCGGCCGCCACUGAUGUGUCUGUUGCGUCCAGUGUGUACAUGAGGAUCACCCAUGUCAGGACCGGGACUUUAAAUU [Sodigeedar] | – | – | – | apparent KD of MS2 coat protein ([2]; input ligand: arginine 13.2 mM): 12.4 nM; apparent KD of MS2 coat protein [2, 7]: 13.5 nM; apparent KD of MS2 coat protein [2, 8]: 12.3 nM |
| AGUUUAGACACGGCCGCCACUCGUGACAGAUUUAGCAGUGGUCAACAUGAGGAUCACCCAUGUCUGAGGACCGGGUGUUGAGUUU [XTryp B #6] | – | – | – | apparent KD of MS2 coat protein ([2]; input ligand: arginine 13.2 mM): 78.9 nM; apparent KD of MS2 coat protein [2, 7]: 176 nM; apparent KD of MS2 coat protein [2, 8]: 217 nM |
| AUGCGCUAUAUGGAUACCAGUAUGAUAAUUGACAUGAGGAUCACCCAUGUGAGCUCUACCUACCCUUGGCAGCCAACCCUAUUUG [theeternabot_sameState_MS2_Theo_B_26] | – | – | – | apparent KD of MS2 coat protein ([2]; input ligand: arginine 13.2 mM): 21.7 nM; apparent KD of MS2 coat protein [2, 7]: 29.9 nM; apparent KD of MS2 coat protein [2, 9]: 23 nM |
| GACUAACAUGAGGAUCACCCAUGUGAAGAUACCAGUAAUUUCACCUACCCUUGGCAGCUUUUUUUGAACGGCCUGAAUGCCUUGU [theeternabot_sameState_MS2_Theo_A_14] | – | – | – | apparent KD of MS2 coat protein ([2]; input ligand: arginine 13.2 mM): 12.2 nM; apparent KD of MS2 coat protein [2, 7]: 17.5 nM; apparent KD of MS2 coat protein [2, 9]: 11.9 nM |
